B1: TBX5 (parent)
chain: YQNHKITQLKIENNPFAKGFRGSD

Variants of: B1
Assay: protein stability index of a GFP-peptide fusion (GPS, HEK-293T) (PSI 1-6); higher = more stable
Conditions: c terminus: a fixed tail appended
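Also: lentivirally expressed fusions sorted by FACS into six bins by GFP to DsRed ratio, PSI derived from sequencing read proportions per bin multiplied by bin number.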

Protein stability index, by site and new letter:
A17: R 2.12; T 2.43; S 2.01; K 2.73; C 2.22; V 2.73; P 2.77; H 2.54; D 2.73; L 2.34; Q 2.54; G 2.27; M 2.5; Y 2.18; F 1.95; I 2.09; N 2.21; W 1.98; E 3.12
N13: C 2.31; L 1.67; P 2.25; I 1.51; V 1.81; K 2.34; W 2.09; T 2.25; F 1.94; R 2.46; Y 1.77; Q 2.55; S 2.37; G 1.81; M 2.29; A 2.17; H 2.15; E 2.36; D 2.48
K18: P 2.54; L 2.06; Y 2.12; I 2.49; D 2.16; G 1.81; V 2.07; R 2.77; W 1.63; A 2.24; T 1.67; N 2.23; S 2.31; F 1.7; M 2.06; Q 2.37; H 2.09; E 3.08; C 1.36
P15: K 2.33; W 1.87; S 2.7; T 2.82; D 3.34; L 2.08; E 2.69; Y 2.34; Q 2.32; I 2.04; F 1.96; G 2.37; V 2.38; N 2.7; R 2.35; H 2.35; C 2.34; A 2.52; M 2.65
E12: N 2.51; A 2.32; D 2.94; I 1.81; R 1.98; S 2.11; Y 1.69; L 2.17; P 2.63; W 1.49; M 2.35; C 1.73; V 1.91; G 2.01; Q 2.22; F 1.7; H 2.3; K 1.84; T 2.75
G19: E 3.99; I 1.85; A 2.75; F 2.16; C 1.74; H 2.55; D 2.7
F16: E 3.64; I 3; Q 3.44; K 3.31; Y 2.46; V 2.73; M 2.98; H 3.54; L 2.51; D 3.52; P 3.93; C 3.17; T 3.47; N 3.48; A 3.12; W 1.93; G 2.83; S 3.56; R 3.16
N14: Q 2.94; F 2.34; C 1.58; L 2.52; R 2.58; S 2.16; W 1.59; I 2.41; G 2.46; M 2.05; K 2.75; T 2.61; V 2.27; H 2.36; A 2.61; E 2.95; Y 1.89; P 2.52; D 2.84
K10: Q 2.5; S 2.79; R 2.58; T 2.74; W 1.95; V 2.02; Y 2.17; P 3.2
I11: A 2.36; L 2.62; V 2.58; G 2.47; M 2.64; C 2.48; Q 2.58; F 2.25; H 2.33; R 2.71; K 2.52; W 2.34; E 3.23; T 2.71; Y 2.83; P 2.71; D 3.27; N 2.59; S 2.96

Source: the supplement of paper PMC10567573
